Source: paper PMC4967302

Legend:
[1] = target: CD4 exposed at the surface of HEK 293T cells (UniProt P01730); assay: flow cytometry on cells
[2] = target: CCR5 in crude membranes from CCR5-expressing HEK 293T cells (UniProt P51681); assay: radioligand binding; equilibrium saturation binding of 35S-labeled gp120 to crude membranes from CCR5-expressing HEK 293T cells, room temperature, in the presence of 200 nM soluble CD4; non-specific binding measured with 10 µM maraviroc; one-site binding model
Chain of UniProt P51681 (P51681 whole entry): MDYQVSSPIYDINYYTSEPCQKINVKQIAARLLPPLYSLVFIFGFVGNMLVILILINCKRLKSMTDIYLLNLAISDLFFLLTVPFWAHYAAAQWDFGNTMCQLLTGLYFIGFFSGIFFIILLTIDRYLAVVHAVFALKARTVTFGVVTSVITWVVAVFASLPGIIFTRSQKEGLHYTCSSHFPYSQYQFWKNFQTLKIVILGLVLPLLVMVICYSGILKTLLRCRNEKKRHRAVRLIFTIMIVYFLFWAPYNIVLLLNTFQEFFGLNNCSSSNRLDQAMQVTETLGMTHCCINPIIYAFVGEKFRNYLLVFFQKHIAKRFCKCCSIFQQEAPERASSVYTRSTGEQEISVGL

“purified soluble wt B gp120 (domain or fragment)” gave a Ki [1] of 3.9 nM and a Kd [2] of 8.4 nM.
